Km, kcat and kcat/Km data for eight substances are collected here from PMC4786772, “Manipulation of prenylation reactions by structure-based engineering of bacterial indolactam prenyltransferases” (Nature Communications, 2016).

Common to all, as to assay: purified protein
Holding throughout (conditions): 150 μM (−)-indolactam V, 42 °C, 5 min, Tris-HCl pH 7.0, 150 mM NaCl

For data set [1], the system named is CC(C)=CCOP(=O)(O)OP(=O)(O)O.
Data set [2] concerns CC(C)=CCC/C(C)=C/COP(=O)(O)OP(=O)(O)O.
Data set [3] deals with CC(C)=CCC/C(C)=C/CC/C(C)=C/CO[P@@](=O)(O)OP(=O)(O)O.

A word on the Km: it is the substrate concentration at which the rate is half of its maximum. For orientation: kcat means the maximal rate divided by the concentration of active sites. By kcat/Km is commonly meant the turnover number divided by the Michaelis constant. In the case of “MpnD (Marinactinospora thermotolerans; Y80W)”, in data set [1], the Km was found to be 15.3 ± 2.5 µM, the turnover number (kcat) was 0.118 ± 0.005 s⁻¹ and the kcat/Km stood at 7700 M⁻¹ s⁻¹. In data set [2], the Km came to 9.7 ± 1.1 µM, the kcat is 0.09 ± 0.00167 s⁻¹ and the kcat/Km worked out at 9300 M⁻¹ s⁻¹.

For the substance “TleC (Streptomyces blastmyceticus; A173M/W97Y)”, in data set [1], the Km turned out to be 41.2 ± 5.6 µM, the kcat amounted to 0.0333 ± 0.00167 s⁻¹ and the kcat/Km is 800 M⁻¹ s⁻¹.

In the case of MpnD (Marinactinospora thermotolerans), the Km came out at 4.8 ± 1.0 µM in data set [1], 26.0 ± 4.9 µM in data set [2] and 95.5 ± 17.1 µM in data set [3]. The kcat was 0.882 ± 0.0433 s⁻¹ in data set [1], 0.0433 ± 0.00333 s⁻¹ in data set [2] and 0.0867 ± 0.00833 s⁻¹ in data set [3]. Further, the kcat/Km in data set [1] worked out at 183000 M⁻¹ s⁻¹; in data set [2], 1700 M⁻¹ s⁻¹; in data set [3] it was 900 M⁻¹ s⁻¹.

In the case of “TleC (Streptomyces blastmyceticus; A173M/F170W/W97Y)”, in data set [1], the Michaelis constant (Km) is 46.6 ± 8.2 µM, the kcat was 0.0433 ± 0.00333 s⁻¹ and the kcat/Km amounted to 900 M⁻¹ s⁻¹.

For “TleC (Streptomyces blastmyceticus; W97Y)”, in data set [1], the Km was 11.3 ± 1.6 µM, the kcat was 0.402 ± 0.0133 s⁻¹ and the kcat/Km is 35500 M⁻¹ s⁻¹. For the same substance, in data set [2], the Km worked out at 7.7 ± 1.0 µM, the kcat came to 0.168 ± 0.00667 s⁻¹ and the kcat/Km amounted to 21800 M⁻¹ s⁻¹.

As for “TleC (Streptomyces blastmyceticus; A173M)”, in data set [1], the Km was found to be 24.6 ± 3.0 µM, the kcat came out at 0.065 ± 0.00167 s⁻¹ and the kcat/Km amounted to 2600 M⁻¹ s⁻¹.

As for TleC (Streptomyces blastmyceticus), in data set [1], the Km turned out to be 21.7 ± 4.3 µM, the kcat was found to be 0.025 ± 0.00167 s⁻¹ and the specificity constant (kcat/Km) amounted to 1100 M⁻¹ s⁻¹. In data set [2], the Km is 9.5 ± 3.3 µM, the kcat came out at 0.25 ± 0.025 s⁻¹ and the kcat/Km was 26400 M⁻¹ s⁻¹.

On to “MpnD (Marinactinospora thermotolerans; M159A)”, for which the Km worked out at 24.2 ± 4.2 µM in data set [1], 9.1 ± 1.2 µM in data set [2] and 48.7 ± 14.6 µM in data set [3]. Also, the catalytic constant (kcat) in data set [1] was determined as 0.505 ± 0.0333 s⁻¹; in data set [2], 0.0717 ± 0.00333 s⁻¹; in data set [3] it was 0.167 ± 0.015 s⁻¹. In addition, the results for the catalytic efficiency (kcat/Km) in data set [1], in data set [2] and in data set [3] were 20900 M⁻¹ s⁻¹, 7900 M⁻¹ s⁻¹ and 3400 M⁻¹ s⁻¹, respectively.
